From article PMC8432352

Legend:
Experiment in all cases: SDS-PAGE without heating
[1] = target: Tail spike protein 1 (TSP1) of Salmonella phage S117 (Salmonella phage S117)
[2] = target: Tail spike protein 2 (TSP2) of Salmonella phage S117 (Salmonella phage S117)
[3] = target: Tail spike protein 3 (TSP3) of Salmonella phage S117 (Salmonella phage S117)
[4] = target: Tail spike protein 4 (TSP4) of Salmonella phage S117 (Salmonella phage S117)

Tail spike protein 1 (TSP1) of Salmonella phage S117 (natural protein)
stoichiometry N [1]: 3

Tail spike protein 2 (TSP2) of Salmonella phage S117 (natural protein)
stoichiometry N [2]: 3

Tail spike protein 3 (TSP3) of Salmonella phage S117 (natural protein)
stoichiometry N [3]: 3

Tail spike protein 4 (TSP4) of Salmonella phage S117 (natural protein)
stoichiometry N [4]: 3
